From patent publication CN114591430A
Values joined by “and” are separate entries in the source; they are usually repeats but may differ in a detail not shown here. Identical values can stand only once.

Columns and labels:
牛血清白蛋白(BSA) (bovine) [1] = biological target: 牛血清白蛋白(BSA) (bovine) (UniProt P02769); test: sandwich ELISA, coat B2 2 ug/ml, BSA 1 ng/ml, detection biotin-B3 0.2 ug/ml
牛血清白蛋白(BSA) (bovine) [2] = biological target: 牛血清白蛋白(BSA) (bovine) (UniProt P02769); test: sandwich ELISA, coat B2 2 ug/ml, BSA 24 ng/ml, detection biotin-B6 0.2 ug/ml, mean of A and B
牛血清白蛋白(BSA) (bovine) [3] = biological target: 牛血清白蛋白(BSA) (bovine) (UniProt P02769); test: indirect ELISA, BSA coated at 1 ug/ml, purified antibody at dilution 8K, HRP goat anti-mouse IgG
Vero细胞裂解液 [4] = test: sandwich ELISA, coat B2, detection biotin-B6, lysate 250 ug/ml
CHO细胞裂解液 [5] = test: as above
HEK293细胞裂解液 [6] = test: as above
牛血清白蛋白(BSA) (bovine) [7] = biological target: 牛血清白蛋白(BSA) (bovine) (UniProt P02769); test: sandwich ELISA, coat B2 2 ug/ml, BSA 6 ng/ml, detection biotin-B6 0.2 ug/ml
Vero细胞裂解液 [8] = test: sandwich ELISA, coat B2, detection biotin-B6, lysate 1 mg/ml
CHO细胞裂解液 [9] = test: as above
HEK293细胞裂解液 [10] = test: as above
牛血清白蛋白(BSA) (bovine) [11] = biological target: 牛血清白蛋白(BSA) (bovine) (UniProt P02769); test: indirect ELISA, BSA coated at 1 ug/ml, purified antibody at dilution 16K, HRP goat anti-mouse IgG
牛血清白蛋白(BSA) (bovine) [12] = biological target: 牛血清白蛋白(BSA) (bovine) (UniProt P02769); test: ELISA, BSA coated at 1 ug/ml, biotin-labelled antibody at dilution 64K, HRP-avidin
牛血清白蛋白(BSA) (bovine) [13] = biological target: 牛血清白蛋白(BSA) (bovine) (UniProt P02769); test: ELISA, BSA coated at 1 ug/ml, biotin-labelled antibody at dilution 8K, HRP-avidin
牛血清白蛋白(BSA) (bovine) [14] = biological target: 牛血清白蛋白(BSA) (bovine) (UniProt P02769); test: indirect ELISA, BSA coated at 1 ug/ml, purified antibody at dilution 1K, HRP goat anti-mouse IgG
牛血清白蛋白(BSA) (bovine) [15] = biological target: 牛血清白蛋白(BSA) (bovine) (UniProt P02769); test: ELISA, BSA coated at 1 ug/ml, biotin-labelled antibody at dilution 32K, HRP-avidin
牛血清白蛋白(BSA) (bovine) [16] = biological target: 牛血清白蛋白(BSA) (bovine) (UniProt P02769); test: ELISA, BSA coated at 1 ug/ml, biotin-labelled antibody at dilution 2K, HRP-avidin
牛血清白蛋白(BSA) (bovine) [17] = biological target: 牛血清白蛋白(BSA) (bovine) (UniProt P02769); test: indirect ELISA, BSA coated at 1 ug/ml, purified antibody at dilution 64K, HRP goat anti-mouse IgG
牛血清白蛋白(BSA) (bovine) [18] = biological target: 牛血清白蛋白(BSA) (bovine) (UniProt P02769); test: sandwich ELISA, coat B2 2 ug/ml, BSA 48 ng/ml, detection biotin-B6 0.2 ug/ml
Vero细胞裂解液 [19] = test: sandwich ELISA, coat B2, detection biotin-B6, lysate 7.81 ug/ml
CHO细胞裂解液 [20] = test: as above
HEK293细胞裂解液 [21] = test: as above
牛血清白蛋白(BSA) (bovine) [22] = biological target: 牛血清白蛋白(BSA) (bovine) (UniProt P02769); test: sandwich ELISA, coat B2 2 ug/ml, BSA 12 ng/ml, detection biotin-B6 0.2 ug/ml, mean of A and B
牛血清白蛋白(BSA) (bovine) [23] = biological target: 牛血清白蛋白(BSA) (bovine) (UniProt P02769); test: ELISA, BSA coated at 1 ug/ml, biotin-labelled antibody at dilution 128K, HRP-avidin
牛血清白蛋白(BSA) (bovine) [24] = biological target: 牛血清白蛋白(BSA) (bovine) (UniProt P02769); test: sandwich ELISA, coat B2 2 ug/ml, BSA 1.5 ng/ml, detection biotin-B6 0.2 ug/ml
Vero细胞裂解液 [25] = test: sandwich ELISA, coat B2, detection biotin-B6, lysate 62.5 ug/ml
CHO细胞裂解液 [26] = test: as above
牛血清白蛋白(BSA) (bovine) [27] = biological target: 牛血清白蛋白(BSA) (bovine) (UniProt P02769); test: ELISA, BSA coated at 1 ug/ml, biotin-labelled antibody at dilution 1024K, HRP-avidin
牛血清白蛋白(BSA) (bovine) [28] = biological target: 牛血清白蛋白(BSA) (bovine) (UniProt P02769); test: sandwich ELISA, coat B2 2 ug/ml, BSA 1 ng/ml (positive sample), detection biotin-B6 0.2 ug/ml
牛血清白蛋白(BSA) (bovine) [29] = biological target: 牛血清白蛋白(BSA) (bovine) (UniProt P02769); test: ELISA, BSA coated at 1 ug/ml, biotin-labelled antibody at dilution 16K, HRP-avidin
Vero细胞裂解液 [30] = test: sandwich ELISA, coat B2, detection biotin-B6, lysate 125 ug/ml
CHO细胞裂解液 [31] = test: as above
HEK293细胞裂解液 [32] = test: as above

Chain of UniProt P02769 (P02769 25-607): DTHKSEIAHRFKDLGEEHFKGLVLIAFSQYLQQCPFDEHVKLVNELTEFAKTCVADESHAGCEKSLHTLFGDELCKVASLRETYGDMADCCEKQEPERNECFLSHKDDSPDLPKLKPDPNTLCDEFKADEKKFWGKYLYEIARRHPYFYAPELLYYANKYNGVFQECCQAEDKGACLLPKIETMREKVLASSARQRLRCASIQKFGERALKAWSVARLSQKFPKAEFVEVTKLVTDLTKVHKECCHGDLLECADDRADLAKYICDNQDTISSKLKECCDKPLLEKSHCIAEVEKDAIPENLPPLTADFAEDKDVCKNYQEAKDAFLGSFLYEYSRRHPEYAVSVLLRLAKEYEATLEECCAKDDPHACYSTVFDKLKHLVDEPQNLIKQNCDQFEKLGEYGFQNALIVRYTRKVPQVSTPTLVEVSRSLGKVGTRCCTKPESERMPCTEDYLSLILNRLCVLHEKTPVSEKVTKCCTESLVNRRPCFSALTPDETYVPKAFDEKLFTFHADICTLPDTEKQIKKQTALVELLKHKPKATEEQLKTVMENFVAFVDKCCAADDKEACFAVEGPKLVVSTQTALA

B1: BSA抗体B2 (antibody, V domains shown)
VH: VKLQESGGGLVKPGGSLKLSCAASGFTFSLYDESWVRQTPEKRLEWVAEIFLGVYRYVPESKVRFTMSRDNAKNTLYLQMSSLRSEDTAMYYCVRLCYWEPEVKKCWGQGTTVTVSS
VL: DIELTQSPLTLSVTIGQPASISCESDLSLKESLDWLLQRPGQSPKRLIYEDLNADCGVPDRFTGSGSGTDSTLKISRVEAEDLGVYYCEIKGTFRWSFGGGTKLEIK
With B1 the OD450 (牛血清白蛋白(BSA) (bovine) [1]) was 0.342 and 0.346, the OD450 (平均值) (牛血清白蛋白(BSA) (bovine) [2]) was 1.5 and the OD450 (牛血清白蛋白(BSA) (bovine) [3]) was 0.728. It also gave an OD450 (Vero细胞裂解液 [4]) of 0.14, an OD450 (CHO细胞裂解液 [5]) of 0.134 and an OD450 (HEK293细胞裂解液 [6]) of 0.134. For the same binder, the OD450 (牛血清白蛋白(BSA) (bovine) [7]) was 0.684 and 0.692, the OD450 (Vero细胞裂解液 [8]) was 0.129 and the OD450 (CHO细胞裂解液 [9]) was 0.132. For the same binder, the OD450 (HEK293细胞裂解液 [10]) was 0.142, the OD450 (牛血清白蛋白(BSA) (bovine) [11]) was 0.537 and the OD450 (牛血清白蛋白(BSA) (bovine) [12]) was 1.12. The OD450 (牛血清白蛋白(BSA) (bovine) [13]) was 1.81, the OD450 (牛血清白蛋白(BSA) (bovine) [14]) was 2.13 and the OD450 (牛血清白蛋白(BSA) (bovine) [15]) was 1.22. For the same binder, the OD450 (牛血清白蛋白(BSA) (bovine) [16]) was 2.21, the OD450 (牛血清白蛋白(BSA) (bovine) [17]) was 0.335 and the OD450 (牛血清白蛋白(BSA) (bovine) [18]) was 2.2 and 2.21. It also gave an OD450 (Vero细胞裂解液 [19]) of 0.138, an OD450 (CHO细胞裂解液 [20]) of 0.136 and an OD450 (HEK293细胞裂解液 [21]) of 0.132. The OD450 (平均值) (牛血清白蛋白(BSA) (bovine) [22]) was 1, the OD450 (牛血清白蛋白(BSA) (bovine) [23]) was 0.821 and the OD450 (牛血清白蛋白(BSA) (bovine) [24]) was 0.404 and 0.412. For the same binder, the OD450 (Vero细胞裂解液 [25]) was 0.137, the OD450 (CHO细胞裂解液 [26]) was 0.129 and the OD450 (牛血清白蛋白(BSA) (bovine) [27]) was 0.175. The OD450 (牛血清白蛋白(BSA) (bovine) [28]) was 0.392 and 0.389, the OD450 (牛血清白蛋白(BSA) (bovine) [29]) was 1.6 and the OD450 (Vero细胞裂解液 [30]) was 0.132. For the same binder, the OD450 (CHO细胞裂解液 [31]) was 0.14 and the OD450 (HEK293细胞裂解液 [32]) was 0.14.
